In patent US20060246471A1 (published 2006):

T1: ML-IAP-BIR (amino acids 63-179 of accession number BIR7_HUMAN), bacterially expressed from pET15b (human, UniProt Q96CA5 63-179)
T1 construct: range 63-179; Purified protein used in the fluorescence polarization assays; also called MLBIR; wild-type ML-IAP-BIR; not shown: N-terminal His6-tag from the pET15b vector
T1 sequence (looked up): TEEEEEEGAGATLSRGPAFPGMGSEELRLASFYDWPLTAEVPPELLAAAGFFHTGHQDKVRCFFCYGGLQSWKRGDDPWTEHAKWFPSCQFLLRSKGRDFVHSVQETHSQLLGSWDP

T2: MLBIR-Q (C-terminally truncated version of ML-IAP-BIR with the same number of amino acids as MLXBIR3 and … (human, UniProt Q96CA5 63-172))
T2 construct: range 63-172; also called C-terminal truncated wild type; not shown: N-terminal His6-tag from the pET15b vector
T2 sequence (looked up): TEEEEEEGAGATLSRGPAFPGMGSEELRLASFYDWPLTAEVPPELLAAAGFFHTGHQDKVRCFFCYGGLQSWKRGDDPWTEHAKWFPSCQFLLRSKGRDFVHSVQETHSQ

B1: MLXBIR3SG (ML-IAP chimera: ML-IAP framework with XIAP-BIR3 residues 336-348 in place of 160-179, and S150G) (other)
chain: MGSSHHHHHHSSGLVPRGSHMLETEEEEEEGAGATLSRGPAFPGMGSEELRLASFYDWPLTAEVPPELLAAAGFFHTGHQDKVRCFFCYGGLQSWKRGDDPWTEHAKWFPGCQFLLRSKGQEYINNIHLTHSL
notes: also called ML-IAP-BIR/XIAP-BIR3 chimera protein; His6-tagged MLXBIR3SG
B2: AVPW peptide (peptide)
peptide: AVPW
notes: also called AVPW (Hid)
B3: full-length ML-IAP plus a N-terminal His6-tag (protein, human, UniProt Q96CA5 1-298, looked up, not shown: small tags and cut ends)
chain: MGPKDSAKCLHRGPQPSHWAAGDGPTQERCGPRSLGSPVLGLDTCRAWDHVDGQILGQLRPLTEEEEEEGAGATLSRGPAFPGMGSEELRLASFYDWPLTAEVPPELLAAAGFFHTGHQDKVRCFFCYGGLQSWKRGDDPWTEHAKWFPSCQFLLRSKGRDFVHSVQETHSQLLGSWDPWEEPEDAAPVAPSVPASGYPELPTPRREVQSESAQEPGGVSPAEAQRAWWVLEPPGARDVEAQLRRLQEERTCKVCLDRAVSIVFVPCGHLVCAECAPGLQLCPICRAPVRSRVRTFLS
B4: wild-type mature Smac protein (amino acids 56-239 of Smac/DIABLO, C-terminal His6 fusion) (other, human, UniProt Q9NR28 56-239, looked up)
chain: AVPIAQKSEPHSLSSEALMRRAVSLVTDSTSTFLSQTTYALIEAITEYTKAVYTLTSLYRQYTSLLGKMNSEEEDEVWQVIIGARAEMTSKHQEYLKLETTWMTAVGLSEMAAEAAYQTGADQASITARNHIQLVKLQVEEVHQLSRKAETKLAEAQIEELRQKTQEEGEERAESEQEAYLRED
notes: range 56-239; not shown: C-terminal His6 fusion from pet21b+

What was measured:
[1] = target: ΔCARD human caspase 9 (lacking the first 138 residues) with Ala substitutions at residues 304 to 306 (human) (UniProt P55211); assay: caspase-9 enzyme inhibition (Ac-LEHD-AFC hydrolysis), Ki(app); too low to measure accurately
[2] = target: T3, 5-carboxyflourescein-conjugated AVPFAK(5-FAM)K (Hid-FAM) (5-carboxyfluorescein (5-FAM) on Lys 6); assay: fluorescence polarization, BIR protein titrated onto 5 nM Hid-FAM
T3 construct: also called HID-FAM probe; Hid-based 5-carboxyfluorescein-labeled peptide
Procedure: Polarization experiments were performed on an Analyst™ HT 96-384 (Molecular Devices Corp.). […] The reactions were read after an incubation time of 10 minutes at room temperature with standard cut-off filters for the fluorescein fluorophore (λₑₓ=485 nm; λₑₘ=530 nm) in 96-well black HE96 plates (Molecular Devices Corp.). Fluorescence polarization values were plotted as a function of the protein concentration, and the EC₅₀ values were obtained by fitting the data to a 4-parameter equation using Kaleidagraph™ software (Synergy software, Reading, Pa.). The apparent Kd values were determined from the EC₅₀ values.

[3] = target: B1; assay: TR-FRET competition against biotinylated Smac peptide AVPIAQK-biotin on His6-tagged MLXBIR3SG
Procedure: Time-Resolved Fluorescence Resonance Energy Transfer (TR-FRET) competition experiments (Kolb et al., (1996) J. Biomol. Screening 1 (4): 203-210) were performed on the Wallac Victor2 Multilabeled Counter Reader™ (Perkin Elmer Life and Analytical Sciences, Inc.). […] Alternatively, this cocktail can be made using optimized concentrations of europium-labeled anti-His₆ antibody (Perkin Elmer) instead of the anti-His₆ antibody-allophycocyanin conjugate, and streptavidin-allophycocyanin conjugate (Perkin Elmer) instead of europium-labeled streptavidin. The reagent cocktail was incubated at room temperature for 30 minutes. […] After a 90 minute incubation at room temperature, the fluorescence was read with filters for the excitation of europium (340 nm) and for the emission wavelengths of europium (615 nm) and allophycocyanin (665 nm). Data are calculated as a ratio of the emission signal of allophycocyanin at 665 nm to the emission signal of europium at 615 nm (these ratios are multiplied by a factor of 10,000 for ease of data manipulation). The resulting values were plotted as a function of antagonist concentration and fit to a 4-parameter equation using Kaleidagraph™ software (Synergy Software, Reading, Pa.). Indications of antagonist potency were determined from the IC₅₀ values.

[4] = target: ΔCARD human caspase 9 (lacking the first 138 residues) with Ala substitutions at residues 304 to 306 (human) (UniProt P55211); assay: caspase-9 enzyme inhibition
[5] = target: B1; assay: fluorescence polarization competition against Hid-FAM probe
Procedure: (§1) Samples were read after a 10-minute incubation. Fluorescence polarization values were plotted as a function of the antagonist concentration, and the IC₅₀ values were obtained by fitting the data to a 4-parameter equation using Kaleidagraph™ software (Synergy software, Reading, Pa.). Inhibition constants (Kᵢ) for the antagonists were determined from the IC₅₀ values (Keating et al., (2000) Putting the pieces together: contribution of fluorescence polarization assays to small-molecule lead optimization. Proceedings of SPIE: In-Vitro Diagnostic Instrumentation.).

[6] = target: T4, XIAP-BIR3 (third BIR of XIAP, residues 252-348) (human, UniProt P98170 252-348); assay: as above
T4 construct: range 252-348; No tags are stated; also called XIAP-BIR3 protein
Procedure: as §1

[7] = target: T1, ML-IAP-BIR (amino acids 63-179 of …); assay: as above
Procedure: as §1

[8] = target: T2, MLBIR-Q (C-terminally truncated version …); assay: as above
Procedure: as §1

Sequence of ΔCARD human caspase 9 (lacking the first 138 residues) with Ala substitutions at residues 304 to 306 (human) (P55211 139-416, stated change not applied): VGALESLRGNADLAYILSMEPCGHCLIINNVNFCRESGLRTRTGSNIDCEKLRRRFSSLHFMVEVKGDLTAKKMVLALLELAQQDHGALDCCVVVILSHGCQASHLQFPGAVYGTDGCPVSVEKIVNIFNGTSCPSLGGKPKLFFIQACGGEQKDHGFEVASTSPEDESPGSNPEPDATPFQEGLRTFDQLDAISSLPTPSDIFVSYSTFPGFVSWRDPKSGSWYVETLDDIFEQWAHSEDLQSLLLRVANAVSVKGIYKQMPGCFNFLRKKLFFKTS
T4 sequence (P98170 252-348 limits assumed): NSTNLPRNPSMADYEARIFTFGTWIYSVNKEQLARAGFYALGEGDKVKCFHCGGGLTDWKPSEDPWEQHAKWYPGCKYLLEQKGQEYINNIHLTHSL

Binder: B1
Ki [1]: < 1 nM | Kd [2]: 30 nM

Binder: B2
IC50 [3]: 150 nM

Binder: B3
fold lower potency for inhibition of caspase-9 activity relative to XIAP [4]: 300 fold

Binder: B4
Ki [5]: 59 nM | Ki [6]: 320 nM | Ki [7]: 26 nM | Ki [8]: 54 nM
